B1: EHEE_rd3_0053 (parent)
chain: TYTFKVDNKDQAKKAAKWAKKLGLSFQIEKHGDTFKITVQ
B2: HHH_rd1_0493 (parent)
chain: RDEDEKEKIKEALKRGNEDKAKEIAKRANVSPEEYERLRKEAE

Variants of: B1
Test: folding stability dG (cDNA display proteolysis); higher = more stable
Conditions: PBS, room temperature

Folding stability dG [kcal/mol]: each site, then its substitutions
Y2: G 0.704 | R 1.97 | P 0.617 | V 2.01 | H 1.95 | T 1.42 | C 3.58 | K 1.59 | M 2.08 | Q 1.17 | A 1.23 | N 0.999 | I 2.27 | D 0.593 | E 0.685 | S 1.18 | F 2.57 | W 2.7 | L 2.25
K14: E 1.95 | V 2.08 | N 2 | R 2.62 | F 2.14 | D 1.56 | H 2.06 | A 2.62 | T 1.89 | P -0.126 | W 2.4 | Y 2.17 | S 2.04 | I 2.21 | G 1.53 | M 2.34 | Q 2.24 | L 2.33
D7: W 2.66 | P 2.27 | A 2.71 | N 2.62 | I 2.27 | V 2.33 | M 2.51 | K 2.77 | H 2.58 | L 2.4 | F 2.83 | T 2.47 | G 2.45 | S 2.66 | Q 2.61 | Y 2.78 | R 2.68 | E 2.37 | C 3.29
T3: N 1.43 | S 2.34 | C 2.98 | A 1.79 | Q 1.95 | K 1.46 | M 1.99 | R 1.6 | F 2.2 | H 2.1 | G 0.986 | Y 2.27 | W 2.67 | L 1.39 | I 2.43 | E 2.15 | V 2.49 | D 1.34 | P 0.945
T1: F 2.42 | P 2.15 | C 3.57 | V 2.43 | W 2.67 | G 2.42 | I 2.51 | K 2.46 | N 2.17 | M 2.37 | H 2.3 | E 2.25 | Y 2.64 | Q 2.34 | D 1.93 | S 2.62 | R 2.45 | L 2.21 | A 2.38
K9: L 2.9 | W 3.2 | Q 2.26 | M 2.74 | G 1.9 | H 2.25 | V 2.57 | I 2.87 | Y 2.86 | S 2.14 | N 1.9 | R 2.46 | A 2.62 | E 2.65 | F 2.74 | P 2.31 | T 2.02 | D 1.91
F4: K 0.404 | N -0.163 | A 0.455 | E 0.316 | T 0.349 | S 0.126 | H 0.581 | I 1.79 | P 0.467 | L 1.38 | Y 1.69 | M 1.23 | C 3.42 | R 0.333 | Q 0.162 | V 1.2 | D -0.075 | G 0.271 | W 2.38
K17: N 2.23 | M 2.52 | G 1.9 | Q 2.57 | T 2.17 | D 2.16 | C 2.6 | E 2.36 | R 2.63 | A 2.61 | I 2.53 | L 2.5 | W 2.43 | Y 2.34 | S 2.33 | V 2.23 | F 2.26 | P -0.379 | H 2.21
K5: S 2.96 | L 3.2 | G 1.89 | Q 2.9 | T 3.28 | D 2.34 | M 3.24 | R 2.22 | F 3.77 | V 3.31 | E 2.93 | H 3.07 | Y 3.89 | A 2.54 | N 2.79 | P 1.7 | W 3.77 | I 3.47
K13: Q 2.3 | P -0.412 | Y 2.32 | H 2.07 | V 2.3 | R 2.66 | T 2.12 | F 2.23 | L 2.46 | I 2.49 | C 3.24 | E 2.32 | G 1.72 | A 2.31 | D 2.46 | S 2.11 | M 2.55 | W 2.35 | N 2.27
N8: A 1.27 | K 1.62 | G 2.35 | H 1.73 | M 1.15 | E 1.16 | F 1.46 | W 1.24 | D 2.02 | T 2.78 | P 0.466 | V 0.955 | Q 1.47 | L 1.43 | R 1.86 | S 2.56 | I 1.16 | Y 1.27
Q11: A 2.65 | I 1.97 | W 1.79 | L 2.33 | S 2.18 | P 0.025 | M 2.36 | C 3.05 | H 2.1 | K 2.38 | T 1.93 | F 1.85 | R 1.99 | N 1.72 | V 1.95 | G 1.97 | E 2.3 | D 2.39 | Y 1.74
D10: P 1.89 | H 2.7 | N 2.6 | R 2.8 | E 2.73 | C 2.72 | Q 2.68 | W 2.98 | L 2.68 | V 2.52 | F 2.75 | G 2.44 | A 2.83 | K 2.74 | S 2.71 | M 2.67 | T 2.73 | I 2.62 | Y 3.04
A12: K 1.26 | R 1.29 | P -0.057 | I 1.97 | V 2.33 | H 0.275 | L 2.42 | E 0.263 | N -0.078 | F 1.36 | G 1.05 | M 2.25 | C 3.23 | W 1.29 | Y 1.31 | S 1.17 | D -0.537 | Q 0.843 | T 1.06
V6: H 0.343 | S 1.03 | G 0.437 | Q 0.045 | T 2.1 | E 0.257 | N -0.311 | Y 1.92 | I 1.89 | D -0.058 | W 1.28 | K 0.315 | M 1.68 | R 0.551 | A 1.62 | P 0.243 | F 2.32 | L 2.32
W18: D 0.328 | F 1.56 | A 1.21 | E 0.8
A15: G 0.564 | F 3.33 | R 1.43 | P -0.232 | T 1.85 | Q 0.637 | W 3.48 | L 2.82 | N 0.377 | V 3.15 | S 1.26 | K 1.25 | Y 3.04 | E 0.415 | M 2.5 | D -0.785 | I 3.43 | C 3.07 | H 1.42
A16: S 1.87 | I 2.73 | V 2.47 | Y 2.45 | F 2.28 | D 0.642 | H 1.65 | T 1.87 | Q 2.16 | W 2.37 | N 1.06 | M 2.45 | L 2.33 | K 2.41 | G 1.84 | R 2.56

Variants of: B2
Test: as above
Conditions: PBS, room temperature

Folding stability dG [kcal/mol] of substitutions, site by site:
E43: L 3.33 | V 2.79 | G 2.47 | T 2.65 | M 3.31 | N 2.59 | Q 3.02 | R 2.72 | K 2.64 | S 2.62 | I 3.07 | H 2.77 | W 3.31 | Y 3.29 | P 1.3
